Consider 21 molecules from US20180305460A1 (Teva, published 2018).

The term Kd denotes a measure of binding affinity in units of concentration. Low values mean tighter binding, high ones weaker binding.

B1: X02.68 (antibody, human IgG4 S228P, V domains shown)
VH: QLQLQESGPGLVKPSETLSLTCKVSGGSISSSSYYWSWIRQHPGKGLEWIGYIYYSGSTNYNPSLKSRVTISVDTLKNQISLRLTSVTAADTAVYYCARVGGAGGWPMDVWGQGTTVTVSS
VL: QAVLTQPASLSASPGESARLTCTLPSDINVRYYNIYWYQQKPGSPPRYLLYYYSDSHKGQGSGVPSRFSGSKDVSTNSGILLISGLQSEDEADYYCMTWSSNGSGVFGGGTQLTVLG
notes: IgG4 S228P; VH T23K relative to X02.1
B2: X02.90 (antibody, V domains shown)
VH: QLQLQESGPGLVKPSETLSLTCTVSGGSISSSSYYWSWIRQHPGKGLEWIGYIYYSGSTNYNPSLKSRVTISVDTLKNQISLRLTSVTAADTAVYYCARVGGAGGWPMDVWGQGTTVTVSS
VL: QAVLTQPASLSASPGESARLTCTLPSDINVRYYNIYWYQQKPGSPPRYLLYYYSDSHKGQGSGVPSRFSGSKDVSTNSGILLISGLQSEDEADYYCMTWSSTGSGVFGGGTQLTVLG
notes: IgG4 S228P with the X02.1 VH; VL N94T relative to A02.1
B3: X02.81 (antibody, V domains shown)
VH: QLQLQESGPGLVKPSETLSLTCTVSGGSISSSSYYWSWIRQHPGKGLEWIGYIYYSGSTNYNPSLKSRVTISVDTLKNQISLRLTSVTAADTAVYYCARVGGAGGWPMDVWGQGTTVTVSS
VL: QAVLTQPASLSASPGESARLTCTLPSDINVRYYNIYWYQQKPGSPPRYLLYYYSDSHKGQGSGVPSRFSGSKDVSTASGILLISGLQSEDEADYYCMTWSSNGSGVFGGGTQLTVLG
notes: IgG4 S228P with the X02.1 VH; VL N69A relative to A02.1
B4: X02.94 (antibody, V domains shown)
VH: QLQLQESGPGLVKPSETLSLTCTVSGGSISSSSYYWSWIRQHPGKGLEWIGYIYYSGSTNYNPSLKSRVTISVDTLKNQISLRLTSVTAADTAVYYCARVGGAGGWPMDVWGQGTTVTVSS
VL: QAVLTQPASLSASPGESARLTCTLPSDINVRYYNIYWYQQKPGSPPRYLLYYYSDSHKGQGSGVPSRFSGSKDVSTNSGILLISGLQSEDEADYYCLTWSSNGSGVFGGGTQLTVLG
notes: IgG4 S228P with the X02.1 VH; VL M89L relative to A02.1
B5: X02.80 (antibody, V domains shown)
VH: QLQLQESGPGLVKPSETLSLTCTVSGGSISSSSYYWSWIRQHPGKGLEWIGYIYYSGSTNYNPSLKSRVTISVDTLKNQISLRLTSVTAADTAVYYCARVGGAGGWPMDVWGQGTTVTVSS
VL: QAVLTQPASLSASPGESARLTCTLPSDINVRYYNIYWYQQKPGSPPRYLLYYYSDSHKGQGSGVPSRFSGSKDVSTNSGILLISGLQSEDEADYYCMTWSSQGSGVFGGGTQLTVLG
notes: IgG4 S228P with the X02.1 VH; VL N94Q relative to A02.1
B6: X02.93 (antibody, V domains shown)
VH: QLQLQESGPGLVKPSETLSLTCTVSGGSISSSSYYWSWIRQHPGKGLEWIGYIYYSGSTNYNPSLKSRVTISVDTLKNQISLRLTSVTAADTAVYYCARVGGAGGWPMDVWGQGTTVTVSS
VL: QAVLTQPASLSASPGESARLTCTLPSDINVRYYNIYWYQQKPGSPPRYLLYYYSDSHKGQGSGVPSRFSGSKDVSTNSGILLISGLQSEDEADYYCITWSSNGSGVFGGGTQLTVLG
notes: IgG4 S228P with the X02.1 VH; VL M89I relative to A02.1
B7: X02.87 (antibody, V domains shown)
VH: QLQLQESGPGLVKPSETLSLTCTVSGGSISSSSYYWSWIRQHPGKGLEWIGYIYYSGSTNYNPSLKSRVTISVDTLKNQISLRLTSVTAADTAVYYCARVGGAGGWPMDVWGQGTTVTVSS
VL: QAVLTQPASLSASPGESARLTCTLPSDINVRYYNIYWYQQKPGSPPRYLLYYYSDSHKGQGSGVPSRFSGSKDVSTNSGILLISGLQSEDEADYYCMTWSSNGAGVFGGGTQLTVLG
notes: IgG4 S228P with the X02.1 VH; VL S96A relative to A02.1
B8: X02.86 (antibody, V domains shown)
VH: QLQLQESGPGLVKPSETLSLTCTVSGGSISSSSYYWSWIRQHPGKGLEWIGYIYYSGSTNYNPSLKSRVTISVDTLKNQISLRLTSVTAADTAVYYCARVGGAGGWPMDVWGQGTTVTVSS
VL: QAVLTQPASLSASPGESARLTCTLPSGINVRYYNIYWYQQKPGSPPRYLLYYYSDSHKGQGSGVPSRFSGSKDVSTNSGILLISGLQSEDEADYYCMTWSSNGSGVFGGGTQLTVLG
notes: IgG4 S228P with the X02.1 VH; VL D(27A)G relative to A02.1
B9: X02.91 (antibody, V domains shown)
VH: QLQLQESGPGLVKPSETLSLTCTVSGGSISSSSYYWSWIRQHPGKGLEWIGYIYYSGSTNYNPSLKSRVTISVDTLKNQISLRLTSVTAADTAVYYCARVGGAGGWPMDVWGQGTTVTVSS
VL: QAVLTQPASLSASPGESARLTCTLRSDINVRYYNIYWYQQKPGSPPRYLLYYYSDSHKGQGSGVPSRFSGSKDVSTNSGILLISGLQSEDEADYYCMTWSSNGSGVFGGGTQLTVLG
notes: IgG4 S228P with the X02.1 VH; VL P26R relative to A02.1
B10: X02.97 (antibody)
heavy: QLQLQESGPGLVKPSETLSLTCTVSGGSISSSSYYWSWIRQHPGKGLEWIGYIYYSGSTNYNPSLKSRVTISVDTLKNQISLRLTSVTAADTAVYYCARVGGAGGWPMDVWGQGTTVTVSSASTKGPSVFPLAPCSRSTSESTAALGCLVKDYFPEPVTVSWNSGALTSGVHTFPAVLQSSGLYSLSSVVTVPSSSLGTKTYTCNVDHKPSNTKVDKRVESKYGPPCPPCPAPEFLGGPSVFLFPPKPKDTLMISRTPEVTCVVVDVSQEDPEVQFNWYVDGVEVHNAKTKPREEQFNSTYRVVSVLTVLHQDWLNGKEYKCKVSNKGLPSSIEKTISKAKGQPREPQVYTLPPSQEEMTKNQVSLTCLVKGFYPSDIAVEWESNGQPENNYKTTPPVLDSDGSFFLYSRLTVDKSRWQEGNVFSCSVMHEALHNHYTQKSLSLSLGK
VL: QAVLTQPASSSASPGESARLTCTLPSDINVRYYNIYWYQQKPGSPPRYLLYYYSDSHKGQGSGVPSRFSGSKDVSTNSGILLISGLQSEDEADYYCMTWSSNGSGVFGGGTQLTVLG
notes: IgG4 S228P with the X02.1 VH; VL L11S relative to A02.1
B11: X02.98 (antibody, V domains shown)
VH: QLQLQESGPGLVKPSETLSLTCTVSGGSISSSSYYWSWIRQHPGKGLEWIGYIYYSGSTNYNPSLKSRVTISVDTLKNQISLRLTSVTAADTAVYYCARVGGAGGWPMDVWGQGTTVTVSS
VL: QAVLTQPASLSASPGESARLTCTLPSDINVGYYNIYWYQQKPGSPPRYLLYYYSDSHKGQGSGVPSRFSGSKDVSTNSGILLISGLQSEDEADYYCMTWSSNGSGVFGGGTQLTVLG
notes: IgG4 S228P with the X02.1 VH; VL R29S relative to A02.1
B12: X02.105 (antibody, V domains shown)
VH: QLQLQESGPGLVKPSETLSLTCTVSGGSISSSSYYWSWIRQHPGKGLEWIGYIYYSGSTNYNPSLKSRVTISVDTLKNQISLRLTSVTAADTAVYYCARVGGAGGWPMDVWGQGTTVTVSS
VL: QAVLTQPASLSASPGESARLTCTLPSDINVRYYNIYWYQQKPGSPPRYLLYYYSDSHKGQGSGVPSRFSGSKDVSTNSGILLISGLQSEDEADYYCMTWPSNGSGVFGGGTQLTVLG
notes: IgG4 S228P with the X02.1 VH; VL S92P relative to A02.1
B13: X02.99 (antibody, V domains shown)
VH: QLQLQESGPGLVKPSETLSLTCTVSGGSISSSSYYWSWIRQHPGKGLEWIGYIYYSGSTNYNPSLKSRVTISVDTLKNQISLRLTSVTAADTAVYYCARVGGAGGWPMDVWGQGTTVTVSS
VL: QAVLTQPASLSASPGESARLTCTLPSDINVRSYNIYWYQQKPGSPPRYLLYYYSDSHKGQGSGVPSRFSGSKDVSTNSGILLISGLQSEDEADYYCMTWSSNGSGVFGGGTQLTVLG
notes: IgG4 S228P with the X02.1 VH; VL Y30S relative to A02.1
B14: X02.100 (antibody, V domains shown)
VH: QLQLQESGPGLVKPSETLSLTCTVSGGSISSSSYYWSWIRQHPGKGLEWIGYIYYSGSTNYNPSLKSRVTISVDTLKNQISLRLTSVTAADTAVYYCARVGGAGGWPMDVWGQGTTVTVSS
VL: QAVLTQPASLSASPGESARLTCTLPSDINVRYYNIYWYQQKPGSPPRYLLYYYSDSDKGQGSGVPSRFSGSKDVSTNSGILLISGLQSEDEADYYCMTWSSNGSGVFGGGTQLTVLG
notes: IgG4 S228P with the X02.1 VH; VL H(54A)D relative to A02.1
B15: X02.104 (antibody, V domains shown)
VH: QLQLQESGPGLVKPSETLSLTCTVSGGSISSSSYYWSWIRQHPGKGLEWIGYIYYSGSTNYNPSLKSRVTISVDTLKNQISLRLTSVTAADTAVYYCARVGGAGGWPMDVWGQGTTVTVSS
VL: QAVLTQPASLSASPGESARLTCTLPSDINVRYYNIYWYQQKPGSPPRYLLYYYSDSHKGQGSGVPSRFSGSKDVSTNSGILLISGLQSEDEADYYCMIWSSNGSGVFGGGTQLTVLG
notes: IgG4 S228P with the X02.1 VH; VL T90I relative to A02.1
B16: X02.95 (antibody)
heavy: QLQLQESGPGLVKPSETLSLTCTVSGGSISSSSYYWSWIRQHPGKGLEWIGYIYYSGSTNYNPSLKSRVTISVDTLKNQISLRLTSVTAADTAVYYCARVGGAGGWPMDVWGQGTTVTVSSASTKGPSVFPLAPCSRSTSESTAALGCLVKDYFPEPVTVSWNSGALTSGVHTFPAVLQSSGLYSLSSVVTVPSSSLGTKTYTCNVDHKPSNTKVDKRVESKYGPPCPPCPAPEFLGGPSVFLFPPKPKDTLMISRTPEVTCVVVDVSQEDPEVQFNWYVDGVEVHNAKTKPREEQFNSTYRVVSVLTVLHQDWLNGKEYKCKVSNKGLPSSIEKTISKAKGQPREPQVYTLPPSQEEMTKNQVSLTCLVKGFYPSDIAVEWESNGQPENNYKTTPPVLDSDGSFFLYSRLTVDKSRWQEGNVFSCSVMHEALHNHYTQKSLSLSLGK
VL: QPVLTQPASLSASPGESARLTCTLPSDINVRYYNIYWYQQKPGSPPRYLLYYYSDSHKGQGSGVPSRFSGSKDVSTNSGILLISGLQSEDEADYYCMTWSSNGSGVFGGGTQLTVLG
notes: IgG4 S228P with the X02.1 VH; VL A2P relative to A02.1
B17: X02.106 (antibody, V domains shown)
VH: QLQLQESGPGLVKPSETLSLTCTVSGGSISSSSYYWSWIRQHPGKGLEWIGYIYYSGSTNYNPSLKSRVTISVDTLKNQISLRLTSVTAADTAVYYCARVGGAGGWPMDVWGQGTTVTVSS
VL: QAVLTQPASLSASPGESARLTCTLPSDINVRYYNIYWYQQKPGSPPRYLLYYYSDSHKGQGSGVPSRFSGSKDVSTNSGILLISGLQSEDEADYYCMTWSSNASGVFGGGTQLTVLG
notes: IgG4 S228P with the X02.1 VH; VL G95A relative to A02.1
B18: X02.9 (antibody, human IgG4 S228P)
heavy: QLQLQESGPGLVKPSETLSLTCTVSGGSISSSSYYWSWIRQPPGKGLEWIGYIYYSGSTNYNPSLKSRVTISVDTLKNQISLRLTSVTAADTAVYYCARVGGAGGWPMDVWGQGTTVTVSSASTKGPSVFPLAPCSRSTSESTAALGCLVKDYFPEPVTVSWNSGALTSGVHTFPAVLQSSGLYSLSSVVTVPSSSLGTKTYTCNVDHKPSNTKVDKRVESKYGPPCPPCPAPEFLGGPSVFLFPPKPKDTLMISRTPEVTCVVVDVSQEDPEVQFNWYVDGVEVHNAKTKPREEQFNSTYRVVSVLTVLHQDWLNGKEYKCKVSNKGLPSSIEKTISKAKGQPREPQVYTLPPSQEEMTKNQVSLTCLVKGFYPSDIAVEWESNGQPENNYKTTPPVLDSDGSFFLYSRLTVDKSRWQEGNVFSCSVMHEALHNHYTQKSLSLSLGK
VL: QAVLTQPASLSASPGESARLTCTLPSDINVRYYNIYWYQQKPGSPPRYLLYYYSDSHKGQGSGVPSRFSGSKDVSTNSGILLISGLQSEDEADYYCMTWSSNGSGVFGGGTQLTVLG
notes: IgG4 S228P; VH H40P relative to X02.1
B19: X02.10 (antibody, human IgG4 S228P)
heavy: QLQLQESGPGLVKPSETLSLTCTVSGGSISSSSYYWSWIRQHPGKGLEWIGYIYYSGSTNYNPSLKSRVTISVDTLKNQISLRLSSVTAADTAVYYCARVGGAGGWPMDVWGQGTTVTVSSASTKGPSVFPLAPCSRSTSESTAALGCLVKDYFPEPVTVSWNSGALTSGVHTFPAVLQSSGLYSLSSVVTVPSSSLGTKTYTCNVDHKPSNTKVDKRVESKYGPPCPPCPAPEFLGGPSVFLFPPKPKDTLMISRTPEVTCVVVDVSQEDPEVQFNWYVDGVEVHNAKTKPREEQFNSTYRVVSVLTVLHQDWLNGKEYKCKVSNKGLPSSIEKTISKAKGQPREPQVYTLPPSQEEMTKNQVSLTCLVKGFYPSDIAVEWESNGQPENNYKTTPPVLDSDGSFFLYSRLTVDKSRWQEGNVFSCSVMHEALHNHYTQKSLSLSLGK
VL: QAVLTQPASLSASPGESARLTCTLPSDINVRYYNIYWYQQKPGSPPRYLLYYYSDSHKGQGSGVPSRFSGSKDVSTNSGILLISGLQSEDEADYYCMTWSSNGSGVFGGGTQLTVLG
notes: IgG4 S228P; VH T(82A)S relative to X02.1
B20: X02.110 (antibody, human IgG4 S228P, V domains shown)
VH: QLQLQESGPGLVKPSETLSLTCTVSGGSISSSSYYWSWIRQHPGKGLEWIGYIYYSGSTNYNPSLKSRVTISVDTLKNQISLKLTSVTAADTAVYYCARVGGAGGWPMDVWGQGTTVTVSS
VL: QAVLTQPASLSASPGESARLTCTLPSDINVRYYNIYWYQQKPGSPPRYLLYYYSDSHKGQGSGVPSRFSGSKDVSTNSGILLISGLQSEDEADYYCMTWSSNGSGVFGGGTQLTVLG
notes: IgG4 S228P; VH R81K relative to X02.1
B21: X02.108 (antibody, human IgG4 S228P, V domains shown)
VH: QLQLQESGPGLVKPSETLSLTCTVSGGSISSSSYYWSWIRQHPGKGLEWIGYIYYSGSTNYNPSLKSRVTISVDTLKNQFSLRLTSVTAADTAVYYCARVGGAGGWPMDVWGQGTTVTVSS
VL: QAVLTQPASLSASPGESARLTCTLPSDINVRYYNIYWYQQKPGSPPRYLLYYYSDSHKGQGSGVPSRFSGSKDVSTNSGILLISGLQSEDEADYYCMTWSSNGSGVFGGGTQLTVLG
notes: IgG4 S228P; VH I78F relative to X02.1

One test has as its target T1, Human CD38 (human, UniProt P28907 43-300). Description: SPR (Biacore), antibody from supernatant captured on Protein A, human CD38 injected, 1:1 fit. Background: Surface plasmon resonance follows binding to a sensor surface in real time, without labels.
Experimental: (§1) The capacity of anti-CD38 antibodies and anti-CD38-attenuated IFN fusion proteins to bind to human CD38 were measured using unpurified transfected cell supernatant prepared 7:1 with Non Specific Binding Reducer (GE Healthcare, Piscataway, N.J.). […] FC2 (or FC4) was used as a reference throughout the experiments. The experiments were run at 37° C. in HBS-P+ buffer (0.01 M HEPES, 0.15 M NaCl, 0.005% v/v Surfactant P20, pH 7.4). At a flow rate of 20 l/min, both flow cells were regenerated with 10 μL 50 mM sodium hydroxide before 40 μL supernatant containing the protein was passed over FC1 (or FC3) only. 301 μL of CD38 (10 g/mL in running buffer) or 30 μL running buffer was injected over FC1 and FC2 with a 5 minute dissociation time. Both surfaces were regenerated twice with sodium hydroxide. Results were generated using the BIAevaluation software provided with the machine. Microsoft Excel was used for calculations. BIAevaluation software automatically subtracted the reference sensorgram giving a trace of FC2-1 (or FC4-3) for each sample. A double reference was performed for each antibody tested by subtracting the sensorgram with a CD38 injection from the sensorgram with a blank running buffer injection. […] BIAevalution was used to fit the sensorgram using a Langmuir 1:1 equation in order to generate an equilibrium association constant (KD)
Molecule B1 returned a Kd of 0.0106 nM.

The target of a further test is T1, Human CD38. The test is described as above. This is another data set of the same source.
Experimental: as §1
As to B2, the Kd turned out to be 0.552 nM. In other words, the sub-nanomolar range.
The molecule B3 came in with a dissociation constant Kd of 0.267 nM. This Kd lies about 2.1-fold lower than the previous one.
The molecule B4 yielded a Kd of 0.00348 nM.
For B5, the Kd stood at 1.44 nM.
The molecule B6 showed an equilibrium dissociation constant (Kd) of 0.0256 nM.
Molecule B7 displayed a Kd of 1.99 nM.

The next test concerns the target T1, Human CD38. Described as above. This is another data set of the same source.
Experimental: as §1
B8 displayed a Kd of 4.28 nM.
The same measure, in the same setting: next, B9: 0.707 nM.

A further test has as its target T1, Human CD38. The test is described as above. The source holds these as a separate data set.
Experimental: as §1
Molecule B10 yielded a Kd of 0.00751 nM.
Consider B11, for which the Kd amounted to 0.00584 nM.
Take B12: the Kd came to 33.1 nM.
Still for that read-out and setting: for B13 the value was 0.00321 nM; for B14, 160 nM.
As to B15, binding was characterised by a dissociation constant (Kd) of 10 nM.
As for B16, the affinity, expressed as Kd, was 0.0044 nM.
On the same count and under the same terms, next, B17: 44.7 nM.

A further test has as its target T1, Human CD38. The test is described as above. This is another data set of the same source.
Experimental: as §1
For the molecule B18, the dissociation constant Kd is 26.3 nM.
On the same count and under the same terms, for B19 the value was 20.7 nM; for B20, 20.7 nM.
Molecule B21 returned a dissociation constant Kd of 26.3 nM.
